Measurements reported in patent US10273304B2, “Biomarker profiles for predicting outcomes of cancer therapy with ERBB3 inhibitors and/or chemotherapies” (Merrimack Pharmaceuticals, Inc., priority 2013, dated 2019).

Legend:
[1] = tested on: advanced, platinum-resistant ovarian cancer; test: Clinical trial, ovarian cancer: paclitaxel with or without MM-121; type: in vivo, human; details: for HR (PFS, treatment vs control): paclitaxel+MM-121 vs paclitaxel, data at 60 weeks
Protocol: A clinical trial was performed that was designed to allow, inter alia, determination of associations between biomarker profiles and clinical responses. Biomarker data were measured in pre-treatment biopsies and (when available) in archived tumor samples. Results pertaining to predictive biomarkers measured in pre-treatment biopsies are described herein.
Four types of assay (each set forth above) were used to assess the six primary biomarkers assessed in this study (EGFR, ErbB2, ErbB3, ErbB4, HRG and BTC):
In total, six primary biomarkers were measured using 15 assays. For the 5 chromogenic assays (qIHC and RNA-ISH), two different overall scores were used: composite score and top-10 score. Accordingly, 20 different variables were assessed at this stage. A Cox proportional hazard model was used to rank the biomarkers. This method determines if PFS varies with biomarker values differently in the treatment arm relative to the control arm. A P-value cutoff of 0.4 was used to determine which biomarkers would be prioritized for subsequent bivariate analyses.
Based on these two thresholds, a biomarker profile positive (BM+) subpopulation is defined for subsequent analyses as: (ErbB2 levels ≤log10 5.1) AND (HRG score ≥1) (“ErbB2 low” AND “HRG positive”). Accordingly, a biomarker profile negative (BM−) subpopulation is defined as (ErbB2 levels >log10 5.1) OR (HRG score <1) This definition results in a BM+prevalence of 34% in the clinical trial population.
In FIG. 8G (progression free survival at 10+ months) and FIG. 8H (overall survival at 10+ months), the treatment arm is represented by a blue line and the control arm is represented by a black line.

[2] = tested on: locally advanced or metastatic ER+ and/or PR+, HER2 negative breast cancer; test: Randomized, double-blind phase 2 trial of exemestane +/- MM-121, breast cancer; type: in vivo, human
[3] = tested on: EGFR-wild-type non-small cell lung cancer (NSCLC)
From the text: A group participating in the study was comprised of 132 patients with wild-type epidermal growth factor receptor (EGFR) who progressed on ≥1 platinum-based standard of care therapy and were EGFR tyrosine kinase inhibitor (TKI)-naïve. […] Data were collected at 10+ months.
Therefore, in this Example, Biomarker positive (BM+) is used interchangeably with Heregulin positive (HRG+). BM+ patients were defined as having detectable HRG mRNA by RNA-ISH (RNA in situ hybridization) as described above in Example 1.

ErbB3 = ErbB3 (Homo sapiens, UniProt P21860); test: Pre-clinical data and computational modeling: MM-121 potency versus ErbB2 level; details: when ErbB2 levels rise above about 100,000 to about 200,000 receptors per cell
[4] = BM+ (heregulin+) patients, FIG. 11
[5] = group ErbB2 < 5.1 (qIHC) & HRG > -5

## CC(=O)O[C@H]1C(=O)[C@@]2(C)[C@H]([C@H](OC(=O)c3ccccc3)[C@]3(O)C[C@H](OC(=O)[C@H](O)[C@@H](NC(=O)c4ccccc4)c4ccccc4)C(C)=C1C3(C)C)[C@]1(OC(C)=O)CO[C@@H]1C[C@@H]2O [paclitaxel, Paclitaxel, reference compound]
[1]; patients treated with paclitaxel alone, FIG. 8I
  PFS of BM- (heregulin-) patients compared with BM+ (heregulin+) patients: much longer PFS

## C=C1C[C@@H]2[C@H](CC[C@]3(C)C(=O)CC[C@@H]23)[C@@]2(C)C=CC(=O)C=C12 [exemestane, 6-methylenandrosta-1,4-diene-3,17-dione, reference compound]
[2]; patients treated with exemestane alone, FIG. 10E
  PFS of BM- (heregulin-) patients compared with BM+ (heregulin+) patients: much longer PFS

## C#Cc1cccc(Nc2ncnc3cc(OCCOC)c(OCCOC)cc23)c1 [erlotinib]
[3]; [4]
  best overall response: complete response (CR): none
  best overall response: partial response (PR): 6.7%
  best overall response: progressive disease (PD): 53.3%
[3]; patients treated with erlotinib alone, FIG. 12C
  PFS of BM- (heregulin-) patients compared with BM+ (heregulin+) patients: much longer PFS

B1: MM-121: anti-ErbB3 monoclonal antibody having VH and VL sequences as shown in SEQ ID NOs: 1 and 2 (antibody, V domains shown)
VH: EVQLLESGGGLVQPGGSLRLSCAASGFTFSHYVMAWVRQAPGKGLEWVSSISSSGGWTLYADSVKGRFTISRDNSKNTLYLQMNSLRAEDTAVYYCTRGLKMATIFDYWGQGTLVTVSS
VL: QSALTQPASVSGSPGQSITISCTGTSSDVGSYNVVSWYQQHPGKAPKLIIYEVSQRPSGVSNRFSGSKSGNTASLTISGLQTEDEADYYCCSYAGSSIFVIFGGGTKVTVL
[1]; BM+ (HER2 low & HRG+), subgroup ErbB4 score 0
  HR (trt:ctrl): 0.13
[1]; BM+, subgroup ErbB4 score >=1
  HR (trt:ctrl): 0.65
[1]; BM- (HER2 low & HRG+ not met), subgroup ErbB4 score 0
  HR (trt:ctrl): 1.05
[1]; BM-, subgroup ErbB3 score >=2
  HR (trt:ctrl): 0.86
[1]; all patients with BM measurements, prevalence=100%
  cumulative HR: ≈ 1
[1]; BM+ subpopulation (ErbB2 <=log10 5.1 AND HRG score >=1)
  HR (PFS, treatment vs control): 0.37
[1]; BM- subpopulation (ErbB2 >log10 5.1 OR HRG score <1)
  HR (PFS, treatment vs control): 1.54
[2]; Cox model with additive terms for treatment, biomarker groups and clinical covariates
  estimated HR in the BM+ group, sensitivity analysis: 0.38
[2]; MM-121+exemestane vs exemestane, no selection, N=115
  HR, BM population: 0.75
[2]; group ErbB2 < 5.1 (HCT)
  HR, BM negative: 3.00
  HR, BM population: 0.82
  HR, BM positive: 0.62
[2]; group ErbB2 < 5.1 (HCT) & HRG > -5, 55 patients
  HR, BM population: 0.66
[2]; group ErbB2 < 5.1 (HCT) & HRG > -5, PFS at about 60 weeks, N=17
  HR, BM positive: 0.32
[2]; group ErbB2 < 5.1 (HCT) & HRG > -5, PFS at about 60 weeks, N=38
  HR, BM negative: 0.89
[2]; group ErbB2 < 5.1 (qIHC)
  HR, BM negative: 3.00
  HR, BM population: 1.16
  HR, BM positive: 0.84
[2]; [5]
  HR, BM negative: 1.30
  HR, BM population: 0.86
  HR, BM positive: 0.32
[2]; group HRG > -5
  HR, BM negative: 0.99
  HR, BM positive: 0.35
[2]; group HRG > -5 (RT-PCR), all patients with this biomarker
  HR, BM population: 0.68
ErbB3
  potency as a function of ErbB2 level: loses potency
